The source of these data is ChEMBL document CHEMBL1152703, “Design and synthesis of a beta-lactamase activated 5-fluorouracil prodrug” (Bioorg Med Chem Lett, 2009).

Substrate in the data set: O=C(Cc1cccs1)N[C@@H]1C(=O)N2C(C(=O)O)=C(Cn3c(=O)[nH]cc(F)c3=O)CS[C@H]12
As to the kind of experiment: Activity at Enterobacter cloacae P99 beta-lactamase by Michaelis-Menten equation.

B1: Beta-lactamase (Enterobacter cloacae), P05364 (protein)
chain: MMRKSLCCALLLGISCSALATPVSEKQLAEVVANTITPLMKAQSVPGMAVAVIYQGKPHYYTFGKADIAANKPVTPQTLFELGSISKTFTGVLGGDAIARGEISLDDAVTRYWPQLTGKQWQGIRMLDLATYTAGGLPLQVPDEVTDNASLLRFYQNWQPQWKPGTTRLYANASIGLFGALAVKPSGMPYEQAMTTRVLKPLKLDHTWINVPKAEEAHYAWGYRDGKAVRVSPGMLDAQAYGVKTNVQDMANWVMANMAPENVADASLKQGIALAQSRYWRIGSMYQGLGWEMLNWPVEANTVVEGSDSKVALAPLPVAEVNPPAPPVKASWVHKTGSTGGFGSYVAFIPEKQIGIVMLANTSYPNPARVEAAYHILEALQ
In the case of B1, the Km (as a rule, the concentration of substrate that gives half-maximal velocity) amounted to 95.4 µM and the Vmax (as a rule, the rate approached at saturating substrate) came out at 3.21 µmol/min/mg.
